Measured values reported in IntAct's records for PubMed 16824542.

B1: SH2B adapter protein 2 (Rattus norvegicus (Rat)), Q9Z200 (parent)
chain: MNGATPGSAAAPAPVPDWRQFCELHAQVAAVDFAHKFCRFLRDNPTYDTPDAGTSFSRHFAANFLAVFSEEVRRVLGTAADTMEPEPAVTSVTSALKTATYGHSRSSEDVSAHVATKARVRKGFSLRNMSLCVVDGVRDLWHRRASPEPEGGATPKTTEPVSEPRDKWTRRLRLARTLAAKVELVDIQREGALRFMVADDAASGPGGTAQWQKCRLLLRRAVAGERFRLEFFVPPKASRPKVSIPLSAIIEVRTTMPLEMPEKDNTFVLKVENGAEYILETIDSLQKHSWVADIQGCVDPGDSEEDTGLSCARGGCLASRVTSCSCELLTEADMPRPPETMTAVGAVVTAPHGRARDTVGESLAHVPLETFLQTLESSGGVSESNNTGDEGAELDPDAEAELELSDYPWFHGTLSRVKAAQLVLAGGPRSHGLFVIRQSETRPGECVLTFNFQGKAKHLRLSLNGHGQCHVQHLWFQSVFDMLRHFHTHPIPLESGGSADITLRSYVRAQGPPPDPGPAPNTAAPVPACWTEPAGQHYFSSLATATCPPTSPSNGAGASSSSGSSSSATSVPPRPAEGPLSARSRSNSTEHLLEAASGATEEPADATLGRARAVENQYSFY

Variants of: B1
Conditions: with insr_human INSR

Variant | effect of a mutation on the interaction
R442A | decreasing interaction
R460A | disrupting interaction
W475H | decreasing interaction
